# According to PMC10779317:
# Target: Dnmt3a-CD (mouse (murine)) (UniProt O88508)
# Assay: competition (inhibition of 30Uf/30Df methylation)
# Details: 20 mM HEPES-NaOH pH 7.5, 100 mM KCl, 1 mM EDTA, 1 mM DTT, 100 uM AdoHcy, 10 nM DNA (60 nM for PWWP); FP temperature not stated; methylation competition at 37 C …
# Dnmt3a-CD (mouse (murine)), sequence (O88508 630-908): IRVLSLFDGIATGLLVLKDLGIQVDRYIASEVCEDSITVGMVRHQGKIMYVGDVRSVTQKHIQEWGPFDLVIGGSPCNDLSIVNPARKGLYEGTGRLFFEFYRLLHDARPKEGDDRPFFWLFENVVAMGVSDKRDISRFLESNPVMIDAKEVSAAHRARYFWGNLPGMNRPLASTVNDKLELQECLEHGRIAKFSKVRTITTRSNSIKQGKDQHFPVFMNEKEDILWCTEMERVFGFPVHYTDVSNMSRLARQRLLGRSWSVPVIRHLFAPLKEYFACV
sequence,measurement,value
TGGGGAGGGTGAGGAGTGTGGGGAAGG [27G4-mut],IC50,1100 nM
